Assay results as given in the supplement of paper PMC10126150.
± gives the standard deviation of the averaged measurements.

These sequences were tested on ATP (assay: switch fluorescence ratio, 500 uM ATP over buffer (Cy3 cluster intensity, sum of 5 cycles each) (fold (ratio)); higher = stronger signal-on switching upon ATP binding; sequences stand for … in TCGTCGGCAGCGTCAGATGTGTATAAGAGACAGTTTTTTTTTTTTTTTTTTTTTTTTT…TC). Conditions: aptamer strand: ATP DNA aptamer (quencher-CACCTGGGGGAGTATTGCGGAGGAAGG + anchor), 100 nM annealed; ATP concentration: 500 uM.
Procedure, shortened: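 Cy3-labelled switching-strand clusters on a modified Illumina MiSeq flow-cell were annealed to 100 nM quencher-labelled ATP aptamer and imaged first in selection buffer, then after 15 min with 500 uM ATP at 22 °C. NaOH stripping and re-annealing separated each of five buffer/ATP cycles, and clusters outside 100-1000 RFU were excluded. The fluorescence ratio sums target-cycle Cy3 intensity over buffer-cycle Cy3 intensity per cluster and averages it per switch-domain sequence.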
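Further: ATP exposure 15 min at 22 °C before imaging.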

Sequence	switch fluorescence ratio
GATCAGCCCC	1.02 ± 0.031
TGGTTTCAGA	0.984 ± 0.019
AGACACGTTA	1.28 ± 0.017
GGTGGAGTCG	1.009 ± 0.0085
ACGGTAGGGC	1.03 ± 0.013
GCATAGCAAT	1.054 ± 0.003
AGAGGCAAGG	1.0062 ± 0.0002
CGCAGAAACG	1 ± 0.036
TTTTACCCGG	1.04 ± 0.029
ATAATTCTAT	0.9819 ± 0.008
TTTGGTGTTA	1 ± 0.026
ACCTCCCGTT	1.12 ± 0.064
AGGGCTCCTG	1.0172 ± 0.00034
CAGCTATCTT	1.039 ± 0.01
CCCATGCTTA	1.046 ± 0.003
TCTACTGGGC	1.05 ± 0.1
AGTTTATCTG	1.01 ± 0.04
TAAGTTAGTG	1 ± 0.016
GGTTGAATGA	0.992 ± 0.053
AGACTGAATT	1.03 ± 0.02
TAATTTGTGG	0.995 ± 0.023
TTAAATTTCG	1.003 ± 0.0035
TGGGGGTTTA	1.03 ± 0.019
TTCTGATTGC	0.984 ± 0.064
GGGGGGTCCA	1.01 ± 0.023

Sequence	switch fluorescence ratio
TAGAGGTGTG	0.99 ± 0.019
ACAGGATGGT	0.998 ± 0.024
CGGTCAGTTT	1.025 ± 0.0089
GGTGTGGCGA	1.03 ± 0.11
AGTTGGAGCT	0.95964 ± 9.2e-05
ATTTGGGTTT	0.992 ± 0.027
TCAAAAGGGA	1.02 ± 0.041
GGAATGCGGG	0.9701 ± 0.0077
AAATTATAGG	1.01 ± 0.032
TTTCGGAACC	1.2 ± 0.22
AGGTACCGTT	1.033 ± 0.0017
TTAATTGTTT	0.989 ± 0.018
ATCTCTGGTC	0.976 ± 0.027
AGCTGGTCCG	1.02 ± 0.022
GCTTCTGCGT	1.02 ± 0.033
AGCATTTTCA	1.24 ± 0.32
TGAGCGGTCA	0.99 ± 0.015
CAAACCAACG	1.345 ± 0.0044
ATTGGCAAAA	1.01 ± 0.035
GTGGTCGAGA	0.986 ± 0.033
GCAACGGGTC	1.03 ± 0.025
GGCAATCCCA	1.03 ± 0.012
GGATTGAGGT	1.02 ± 0.032
TTTACCCGGC	1.1 ± 0.13
TTGTCGGCG	1 ± 0.013

Sequence	switch fluorescence ratio
CCTCACTAGT	1.0949 ± 8.2e-05
GAGGCGACTG	1.03 ± 0.031
GGGTAACGGC	1.01 ± 0.089
AGGGGGATCA	1.011 ± 0.0061
GTTGGGTATA	0.996 ± 0.014
GGTTAAAGGA	0.95798 ± 0.00066
AAAAGTCAAT	1.004 ± 0.0089
TTGGGGGATC	0.982 ± 0.015
GGGGAGTCGG	1.01 ± 0.047
TCGGATAAGT	1.01 ± 0.034
AAGTCTGGGG	1.01 ± 0.027
GTAAGAAGGA	1.02 ± 0.07
TTGGAAAGTG	1.05 ± 0.13
TGAGCTGAGG	0.957 ± 0.049
CGGTGTTAAC	0.957 ± 0.036
AAGAATATCA	1.02 ± 0.016
TTAGCCCATG	1.03 ± 0.029
ATGTATCGGG	0.975 ± 0.036
CTATTTAGCC	1.02 ± 0.063
AGTCAGAAAT	1 ± 0.022
GCAAGTAGGG	1.02 ± 0.019
TTTTTCCCAT	1.03 ± 0.014
TCCTAACTTG	1.01 ± 0.014
TCAGAGGCGT	0.9964 ± 0.0056
ATTTGTGCAG	0.954 ± 0.013

Sequence	switch fluorescence ratio
ATTGATTAGT	1.12 ± 0.18
TTTGGCACGC	1.11 ± 0.04
AGGTTTATTT	1.02 ± 0.018
TGCGGGGAGG	1.01 ± 0.0017
ATAGTAGTCG	1.03 ± 0.1
TTGGGGCTT	1.32 ± 0.41
AGAAGTGGAG	1.004 ± 0.01
AGGAGGCAGG	1.03 ± 0.011
AACTCTTCTT	1.04 ± 0.035
ATTAGTAGGT	0.976 ± 0.012
GTTCTAGTGT	0.972 ± 0.04
TATTTAAGGG	1.12 ± 0.16
TATCTCCAAT	1.12 ± 0.052
TTAAAATGTC	0.992 ± 0.014
CTAGTAGTGT	1.01 ± 0.022
GGTGGGAACA	0.992 ± 0.03
TAGAGGAGTT	0.951 ± 0.051
AACTTGGCGC	1.01 ± 0.057
ATTTAGGCTG	1.062 ± 0.0089
GATTCCTCAT	1.015 ± 0.0095
TGGGGGAATT	1 ± 0.029
GATTTTATGT	1.05 ± 0.086
TCATGGAGTA	0.981 ± 0.08
TGGTAGAAGG	0.954 ± 0.013
GCTGTTTCGG	0.981 ± 0.01

Sequence	switch fluorescence ratio
GTTGATATAG	1 ± 0.021
ATCAGTGCGA	1.036 ± 0.0081
TTTCAGTCTA	1.03 ± 0.024
CTGTTCTGTG	0.951 ± 0.033
AACCAATAGC	1.1 ± 0.035
TAGTGTATTG	1.01 ± 0.012
TTATTGGGTG	1.04 ± 0.024
ACGGTTCCTG	1.001 ± 0.0061
TGAGAGGCGT	1.022 ± 0.0098
AAAAGAGAAG	1 ± 0.011
GGTGTGTGAC	0.999 ± 0.016
CGTGTTTTAG	1 ± 0.033
TGTCTTACCT	1.147 ± 0.0093
GGGTTCGACA	0.998 ± 0.019
AGTTGGCAAT	1.24 ± 0.061
TTCGAAAGGT	1.1 ± 0.2
GGGTAAAGAT	1.02 ± 0.021
TATTATTTTG	1 ± 0.049
TTAGTATGAC	1.02 ± 0.042
AGGATGGTTC	0.9541 ± 0.0016
CAATTTTGTG	0.9807 ± 0.007
TAGCGGAGGC	1.03 ± 0.03
TATAATAGTT	0.965 ± 0.037
TTGATCAGTG	1.01 ± 0.015
CCCGGAGGCC	0.961 ± 0.034

Sequence	switch fluorescence ratio
GATCATGTAC	1.14 ± 0.036
TCAAGGAGTT	0.9773 ± 0.0047
AAATCTGAAG	0.9798 ± 0.0027
CGCAGAGCGA	1.02 ± 0.0082
GCTTGGATCC	0.966 ± 0.022
GCATCTAAGC	1.06 ± 0.043
TGGGGTGTTG	0.983 ± 0.011
AAAAACGTAA	1.1 ± 0.061
TGACTTTGAT	0.95 ± 0.013
TAGATGGGGA	0.977 ± 0.035
ACGCGATAAC	4.27 ± 0.27
ATATTTAACC	1.02 ± 0.025
GGGTAAATCT	1.04 ± 0.026
GAACATGCAG	1.01 ± 0.03
GATGGAGTAA	1.08 ± 0.042
GCGAAAAGGA	1.02 ± 0.011
GGTGCAACAT	1.03 ± 0.051
GGGGTTTATA	0.997 ± 0.026
TTTTTCGACC	1.01 ± 0.035
ACAGGGGTTT	1.37 ± 0.7
GGTTATAAGT	0.975 ± 0.034
ATTTTCGGGG	1.01 ± 0.039
TAATTATGTG	0.986 ± 0.024
TGAAAGGGGG	0.99 ± 0.014
TGTGGCCGTT	1.03 ± 0.059

Sequence	switch fluorescence ratio
TAGGCTGCGA	1.04 ± 0.025
TATGTTTGAA	0.984 ± 0.015
TTTTAGTATG	1 ± 0.02
ATTGCCACGG	1.033 ± 0.0089
AATGACGTGT	1 ± 0.052
CGTGTGCCGA	1.01 ± 0.057
CTTAAATGTA	0.982 ± 0.021
GGGATTGTTT	0.965 ± 0.021
TTAGATCGCC	0.969 ± 0.027
TTTAGGGACT	1.02 ± 0.024
GTTTAATTTT	0.987 ± 0.033
TATTTTCCTG	1.15 ± 0.18
GGTTTGATGC	0.962 ± 0.055
CCATTTGCGG	1.001 ± 0.0088
TAGAAATGGT	0.994 ± 0.041
GAGGGGAGTA	1 ± 0.033
TTTGGTAAAA	1.01 ± 0.037
CGGGGTATTC	0.964 ± 0.078
CAGTCGTCCT	1.028 ± 0.0019
TGGGAAATCG	1.03 ± 0.014
ATGTTAAGTC	0.97 ± 0.049
GCTTTTGGCC	0.971 ± 0.02
TTGCGTGGGG	1.005 ± 0.0065
TTGGGTTGCT	1.12 ± 0.21
GTGGTGGGGA	1 ± 0.024

Sequence	switch fluorescence ratio
GATGTAGGAG	0.971 ± 0.019
GTGTTCATGG	1 ± 0.012
GGTGAAGGAT	0.982 ± 0.026
GATTTGGCGA	0.992 ± 0.011
GTTTTTCTGT	1.01 ± 0.014
TAGGGTGTCA	1.03 ± 0.047
CAAATCGTCG	0.957 ± 0.022
TGCAGGGCGT	1.01 ± 0.031
CGCGCCGTTG	1 ± 0.011
CATAGATTTT	0.98896 ± 0.00042
GGGTGGGTTA	1.01 ± 0.038
CGTTTAGGTT	1 ± 0.017
TCTTTTTGGA	1.017 ± 0.0079
GAAAAAATCC	1.29 ± 0.34
TTCAAAACGT	1.04 ± 0.017
GGTAAAGGTA	1 ± 0.029
CATTAGCTGG	1.03 ± 0.002
TTTCCAGGCA	1.03 ± 0.0051
CATGTGTTGT	0.987 ± 0.014
AGCTGGGTCC	1.04 ± 0.041
TCGAGGGAGG	0.994 ± 0.075
AGTTTGGGCC	1.017 ± 0.0059
AATGGGGTAT	1.02 ± 0.018
TAGCCTAGTT	0.963 ± 0.022
CGTGTGGTGG	0.944 ± 0.032
